In the supplement of paper PMC10126150:
± gives the standard deviation of the averaged measurements.

Tested on: ATP
Experiment: switch fluorescence ratio, 500 uM ATP over buffer (Cy3 cluster intensity, sum of 5 cycles each) (fold (ratio)); higher = stronger signal-on switching upon ATP binding; sequences stand for … in TCGTCGGCAGCGTCAGATGTGTATAAGAGACAGTTTTTTTTTTTTTTTTTTTTTTTTT…TC
Conditions: aptamer strand: ATP DNA aptamer (quencher-CACCTGGGGGAGTATTGCGGAGGAAGG + anchor), 100 nM annealed; ATP concentration: 500 uM
Outline: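 The fluorescence ratio divides summed target-cycle Cy3 intensity by summed buffer-cycle Cy3 intensity for each cluster and is averaged per switch-domain sequence. Cy3-labelled switching-strand clusters on a modified Illumina MiSeq flow-cell were annealed to 100 nM quencher-labelled ATP aptamer, then imaged in selection buffer and again after 15 min with 500 uM ATP at 22 °C. Five such cycles were run, with NaOH stripping and re-annealing between them, and clusters outside 100-1000 RFU were excluded.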
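Note: ATP exposure 15 min at 22 °C before imaging.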

| Sequence | switch fluorescence ratio |
| --- | --- |
| GTTGGGAGTC | 1.01 ± 0.012 |
| GTTGGGATGT | 0.996 ± 0.015 |
| GTTGGGCACT | 0.992 ± 0.033 |
| GTTGGGCCGG | 0.987 ± 0.021 |
| GTTGGGGAGG | 1.01 ± 0.035 |
| GTTGGGGATT | 0.977 ± 0.016 |
| GTTGGGGCCG | 0.991 ± 0.0068 |
| GTTGGGGCTT | 1.021 ± 0.002 |
| GTTGGGGTGT | 1.01 ± 0.013 |
| GTTGGGTTAT | 0.982 ± 0.017 |
| GTTGGTAGCC | 0.978 ± 0.022 |
| GTTGGTAGGG | 0.9979 ± 0.0099 |
| GTTGGTAGGT | 0.997 ± 0.019 |
| GTTGGTTAGC | 1.02 ± 0.035 |
| GTTGGTTGTA | 0.987 ± 0.057 |
| GTTGTAAAGG | 1.02 ± 0.026 |
| GTTGTAGATG | 1.005 ± 0.0058 |
| GTTGTAGCAC | 1.07 ± 0.029 |
| GTTGTAGTCC | 1.02 ± 0.022 |
| GTTGTCAGGT | 1.001 ± 0.0018 |
| GTTGTCTTTG | 1.01 ± 0.031 |
| GTTGTGAATA | 0.994 ± 0.028 |
| GTTGTGGGAA | 0.98266 ± 0.00039 |

| Sequence | switch fluorescence ratio |
| --- | --- |
| GTTGTGGGTG | 1.03 ± 0.018 |
| GTTGTGGTTT | 0.975 ± 0.034 |
| GTTGTGTCTT | 0.991 ± 0.041 |
| GTTGTGTTAA | 0.997 ± 0.014 |
| GTTGTTGCAA | 1.13 ± 0.21 |
| GTTGTTGTCG | 0.974 ± 0.1 |
| GTTGTTTTAG | 0.992 ± 0.019 |
| GTTTAAAGAC | 0.981 ± 0.02 |
| GTTTAACGGG | 1.03 ± 0.051 |
| GTTTAAGTTA | 0.991 ± 0.025 |
| GTTTAATCTT | 0.9896 ± 0.0031 |
| GTTTAATGGA | 1.01 ± 0.021 |
| GTTTAATTGG | 1 ± 0.024 |
| GTTTACCTTC | 1.04 ± 0.062 |
| GTTTAGAAAG | 1.01 ± 0.017 |
| GTTTAGAGGA | 1 ± 0.025 |
| GTTTAGAGGT | 0.9925 ± 0.0082 |
| GTTTAGAGTG | 0.944 ± 0.033 |
| GTTTAGGGGA | 0.999 ± 0.015 |
| GTTTAGGGTT | 1.02 ± 0.018 |
| GTTTAGTATT | 0.999 ± 0.019 |
| GTTTATCGGG | 0.964 ± 0.0099 |
| GTTTATGGTG | 0.999 ± 0.025 |

| Sequence | switch fluorescence ratio |
| --- | --- |
| GTTTATTTCG | 0.987 ± 0.059 |
| GTTTCAGGGA | 1.01 ± 0.013 |
| GTTTCAGGTA | 1.02 ± 0.029 |
| GTTTCATGGG | 0.9685 ± 0.0041 |
| GTTTCCGATT | 0.991 ± 0.019 |
| GTTTCGAGGG | 0.974 ± 0.037 |
| GTTTCGGGGT | 1.004 ± 0.0055 |
| GTTTCGTTGT | 0.9798 ± 0.0019 |
| GTTTCTCATC | 1.02 ± 0.011 |
| GTTTCTTAGA | 0.978 ± 0.036 |
| GTTTCTTTTA | 0.99 ± 0.02 |
| GTTTGAATTG | 0.9879 ± 0.0049 |
| GTTTGAGGGT | 0.9939 ± 0.0087 |
| GTTTGAGTCT | 1.01 ± 0.028 |
| GTTTGATCGG | 0.97 ± 0.013 |
| GTTTGCACTG | 1.04 ± 0.021 |
| GTTTGCCTGT | 0.9845 ± 0.0094 |
| GTTTGCTTTT | 1 ± 0.046 |
| GTTTGGATCG | 1 ± 0.015 |
| GTTTGGGATT | 1 ± 0.024 |
| GTTTGGGCGG | 0.978 ± 0.057 |
| GTTTGGGGTT | 0.979 ± 0.031 |
| GTTTGGGTTT | 0.992 ± 0.031 |

| Sequence | switch fluorescence ratio |
| --- | --- |
| GTTTGGTCGG | 1.04 ± 0.035 |
| GTTTGTAAGT | 1.01 ± 0.045 |
| GTTTGTAGGG | 0.988 ± 0.037 |
| GTTTGTATGG | 1.01 ± 0.018 |
| GTTTGTCAGC | 1.01 ± 0.024 |
| GTTTGTCCGA | 1.01 ± 0.012 |
| GTTTGTGC | 0.998 ± 0.059 |
| GTTTGTGTCC | 0.965 ± 0.079 |
| GTTTGTTTAG | 1.011 ± 0.006 |
| GTTTGTTTGT | 0.995 ± 0.019 |
| GTTTTACACG | 0.954 ± 0.031 |
| GTTTTAGAGT | 0.989 ± 0.02 |
| GTTTTATATG | 0.978 ± 0.011 |
| GTTTTATTAG | 0.951 ± 0.032 |
| GTTTTCACTC | 1.0086 ± 0.00085 |
| GTTTTCCCTT | 0.982 ± 0.016 |
| GTTTTCTATA | 0.975 ± 0.039 |
| GTTTTGCCTG | 0.998 ± 0.0045 |
| GTTTTGGAGC | 1.03 ± 0.067 |
| GTTTTGGGAA | 1.02 ± 0.026 |
| GTTTTGGTAG | 1.001 ± 0.0067 |
| GTTTTGTATT | 1 ± 0.029 |
| GTTTTGTTGT | 0.99 ± 0.027 |

| Sequence | switch fluorescence ratio |
| --- | --- |
| GTTTTTAATT | 0.95322 ± 0.0005 |
| GTTTTTACCT | 1.21 ± 0.19 |
| GTTTTTAGGG | 1.02 ± 0.021 |
| GTTTTTATGT | 0.973 ± 0.014 |
| GTTTTTCAGG | 1 ± 0.017 |
| GTTTTTGAGT | 1.016 ± 0.0031 |
| GTTTTTGCTG | 0.976 ± 0.024 |
| GTTTTTGGCG | 0.94 ± 0.16 |
| GTTTTTTGCG | 0.999 ± 0.036 |
| GTTTTTTGGA | 1.01 ± 0.018 |
| GTTTTTTGGC | 0.97 ± 0.058 |
| GTTTTTTTGT | 0.966 ± 0.001 |
| GTTTTTTTTC | 0.985 ± 0.011 |
| TAAAAAAAAG | 1.01 ± 0.039 |
| TAAAAAAATA | 0.971 ± 0.0079 |
| TAAAAAATAT | 0.967 ± 0.043 |
| TAAAAAATTT | 1.02 ± 0.035 |
| TAAAAATATA | 1 ± 0.034 |
| TAAAACTAAA | 0.9977 ± 0.0012 |
| TAAAAGGAAA | 0.9773 ± 0.0045 |
| TAAAAGGCAA | 1.14 ± 0.085 |
| TAAAAGGGGA | 0.982 ± 0.029 |
| TAAAAGTCCG | 1.06 ± 0.022 |

| Sequence | switch fluorescence ratio |
| --- | --- |
| TAAAAGTGAG | 1 ± 0.022 |
| TAAAAGTGTT | 1.07 ± 0.059 |
| TAAAAGTTGG | 0.985 ± 0.029 |
| TAAAATAGTT | 0.972 ± 0.026 |
| TAAAATCCGT | 0.981 ± 0.011 |
| TAAAATCGGG | 0.958 ± 0.023 |
| TAAAATGAGG | 0.987 ± 0.043 |
| TAAAATGCCG | 1.01 ± 0.061 |
| TAAAATTGAA | 0.9905 ± 0.0041 |
| TAAAATTGGG | 0.989 ± 0.014 |
| TAAACAATTA | 0.9734 ± 0.0095 |
| TAAACCCACT | 1.24 ± 0.063 |
| TAAACGGGAC | 1.11 ± 0.019 |
| TAAACTCCTT | 1.05 ± 0.035 |
| TAAACTGACG | 1.03 ± 0.051 |
| TAAACTGCGG | 1.03 ± 0.02 |
| TAAACTGGGA | 1.004 ± 0.0093 |
| TAAAGAACGT | 0.942 ± 0.015 |
| TAAAGATAGC | 1.02 ± 0.064 |
| TAAAGATGAG | 1.0091 ± 0.00022 |
| TAAAGCGGTG | 0.992 ± 0.027 |
| TAAAGCTTTT | 1.09 ± 0.16 |
| TAAAGGCGAG | 1.02 ± 0.027 |

| Sequence | switch fluorescence ratio |
| --- | --- |
| TAAAGGCTTG | 0.976 ± 0.034 |
| TAAAGGGCAC | 1.011 ± 0.0093 |
| TAAAGGTATG | 1.02 ± 0.013 |
| TAAAGGTTGG | 0.962 ± 0.025 |
| TAAAGTAGTC | 1.05 ± 0.044 |
| TAAAGTATTT | 1.04 ± 0.073 |
| TAAAGTTAGA | 0.989 ± 0.012 |
| TAAAGTTAGC | 0.995 ± 0.028 |
| TAAAGTTCAG | 0.9685 ± 0.0073 |
| TAAAGTTTTT | 1.002 ± 0.0088 |
| TAAATAGGGC | 1.02 ± 0.045 |
| TAAATATTT | 0.996 ± 0.025 |
| TAAATCACGG | 1.02 ± 0.038 |
| TAAATCCGGT | 0.997 ± 0.041 |
| TAAATCCTA | 1.02 ± 0.022 |
| TAAATCGTTG | 0.9906 ± 0.005 |
| TAAATGGACG | 0.9669 ± 0.0095 |
| TAAATGGGGA | 0.995 ± 0.025 |
| TAAATTGGCG | 0.987 ± 0.037 |
